Measured values as given in US20070190024A1 (INSERM INSTITUT NATIONAL DE LA SANTE ET DE LA RECH, published 2007).
Substitutions are numbered along the chain they refer to. Names and notes keep the numbering of the source.

B1: FPΔIL-11 (parental, non-mutated recombinant human IL-11 with Flag tag and phosphorylation site, deleted of the first 31 N-terminal amino acids) (ligand)
chain: MDYKDDDDKEGRRASVASPDPRAELDSTVLLTRSLLADTRQLAAQLRDKFPADGDHNLDSLPTLAMSAGALGALQLPGVLTRLRADLLSYLRHVQWLRRAGGSSLKTLEPELGTLQARLDRLLRRLQLLMSRLALPQPPPDPPAPPLAPPSSAWGGIRAAHAILGGLHLTLDWAVRGLLLLKTRL
notes: Produced in E. coli BL21(DE3); monomer by gel filtration; in SPR it was unlabelled; also called parental FPΔIL-11; parent IL-11
B2: H/V-D/A mutein (FPΔIL-11 with H182V and D186A) (ligand)
chain: B1 chain with H168V, D172A
notes: in SPR it was unlabelled; also called H182V+D186A; mutant FPΔIL-11
B3: commercial recombinant human IL-11 (rhIL-11, R&D) (ligand)
chain: PGPPPGPPRVSPDPRAELDSTVLLTRSLLADTRQLAAQLRDKFPADGDHNLDSLPTLAMSAGALGALQLPGVLTRLRADLLSYLRHVQWLRRAGGSSLKTLEPELGTLQARLDRLLRRLQLLMSRLALPQPPPDPPAPPLAPPSSAWGGIRAAHAILGGLHLTLDWAVRGLLLLKTRL

Legend:
[1] = target: T1, murine high affinity IL-11 receptor complex (IL-11Rα with gp130) on 7TD1 cells (Class 2 sites) (mouse, UniProt Q64385 24-432; Q00560 23-917); assay: cell-based or functional assay
T1 sequence (looked up) 1: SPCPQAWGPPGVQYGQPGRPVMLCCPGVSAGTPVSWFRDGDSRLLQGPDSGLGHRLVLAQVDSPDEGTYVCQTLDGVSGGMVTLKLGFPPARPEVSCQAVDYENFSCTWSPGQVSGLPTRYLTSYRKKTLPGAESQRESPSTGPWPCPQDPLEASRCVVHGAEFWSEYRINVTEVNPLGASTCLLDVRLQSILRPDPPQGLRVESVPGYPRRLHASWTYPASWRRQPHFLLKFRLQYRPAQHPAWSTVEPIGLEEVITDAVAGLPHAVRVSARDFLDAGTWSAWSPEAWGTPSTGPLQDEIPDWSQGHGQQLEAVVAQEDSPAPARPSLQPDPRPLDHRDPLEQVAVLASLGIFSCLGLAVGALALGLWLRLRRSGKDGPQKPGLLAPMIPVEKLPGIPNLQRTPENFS
T1 sequence (looked up) 2: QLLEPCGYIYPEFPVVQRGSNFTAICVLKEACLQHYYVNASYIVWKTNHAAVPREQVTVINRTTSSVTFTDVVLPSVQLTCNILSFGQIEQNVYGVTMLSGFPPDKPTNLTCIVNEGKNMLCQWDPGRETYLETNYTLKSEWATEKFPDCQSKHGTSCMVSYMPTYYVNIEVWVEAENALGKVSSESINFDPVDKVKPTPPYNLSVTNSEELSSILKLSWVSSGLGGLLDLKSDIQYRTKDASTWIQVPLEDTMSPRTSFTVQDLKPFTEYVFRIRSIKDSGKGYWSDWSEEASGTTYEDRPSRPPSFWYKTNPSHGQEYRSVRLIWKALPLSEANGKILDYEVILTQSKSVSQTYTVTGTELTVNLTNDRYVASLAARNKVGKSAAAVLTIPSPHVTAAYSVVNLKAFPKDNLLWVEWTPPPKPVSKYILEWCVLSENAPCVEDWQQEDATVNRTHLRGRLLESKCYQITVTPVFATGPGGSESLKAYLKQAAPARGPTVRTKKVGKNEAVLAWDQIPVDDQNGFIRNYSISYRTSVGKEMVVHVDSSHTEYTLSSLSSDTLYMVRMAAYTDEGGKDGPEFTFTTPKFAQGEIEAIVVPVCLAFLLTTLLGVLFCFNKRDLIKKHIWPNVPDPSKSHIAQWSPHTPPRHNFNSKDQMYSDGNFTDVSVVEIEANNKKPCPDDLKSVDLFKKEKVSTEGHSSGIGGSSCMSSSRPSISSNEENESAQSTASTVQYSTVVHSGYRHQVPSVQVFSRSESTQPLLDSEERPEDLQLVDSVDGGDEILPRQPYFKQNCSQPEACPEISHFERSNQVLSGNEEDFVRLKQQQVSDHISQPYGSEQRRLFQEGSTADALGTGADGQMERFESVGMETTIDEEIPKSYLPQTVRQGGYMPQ

[2] = target: T2, fusion protein of human IL-11R and IL-2 (IL-11R-IL-2) (human, UniProt Q14626 23-370; P60568 21-153, limits assumed); assay: SPR (BiaCore 2000), IL-11R-IL-2 amine-coupled to a CM5 chip
T2 construct: Amine-coupled to a CM5 chip at about 500 RU; also called human IL-11Rα-IL-2 fusion protein; recombinant human IL-11R-IL-2
Protocol: (§1) These experiments were performed with a BiaCore 2000 optical biosensor (BiaCore, Uppsala, Sweden). A fusion protein of human IL-11R and IL-2 (IL-11R-IL-2) [Blanc et al. (2000). Monoclonal antibodies against the human interleukin-11 receptor alpha-chain (IL-11Ralpha) and their use in studies of human mononuclear cells. J. Immunol. Methods 241, 43-59, the content of which is herein incorporated by reference] was coupled through primary amino groups to a carboxymethyl dextran flow cell (CM5) at a low immobilisation level (about 500 RU per flow cell) compatible with kinetic binding studies. Subsequent binding of parental FPΔIL-11 or mutein was carried out in Hepes-buffered saline (pH 7.4) at a flow rate of 10 μl/minute at room temperature.
(§2) In order to find out if mutagenesis and associated conformational change of H/V-D/A have an effect on its interaction with IL-11Rα, the association and dissociation kinetic constants (kₒₙ, koff) describing parent IL-11 and H/V-D/A mutein binding to human IL-11Rα were determined by surface plasmon resonance biosensor analysis using dextran-immobilized purified human IL-11Rα-IL-2 [Blanc et al. (2000), cited supra] fusion protein as matrix.

[3] = target: T3, human IL-11 receptor (human IL-11Rα and human gp130) on B13Rα1 cells (human, UniProt Q14626 23-422; P40189 23-918); assay: Scatchard analysis, 32P-labelled ligand on B13Rα1 cells; unlabelled competitor H/V-D/A
T3 construct: whole, on cells; also called Ba/F3 cells stably transfected with human gp130 and hIL-11Rα; Ba/F3 cells co-transfected with human IL-11Rα and human gp130
T3 sequence (looked up) 1: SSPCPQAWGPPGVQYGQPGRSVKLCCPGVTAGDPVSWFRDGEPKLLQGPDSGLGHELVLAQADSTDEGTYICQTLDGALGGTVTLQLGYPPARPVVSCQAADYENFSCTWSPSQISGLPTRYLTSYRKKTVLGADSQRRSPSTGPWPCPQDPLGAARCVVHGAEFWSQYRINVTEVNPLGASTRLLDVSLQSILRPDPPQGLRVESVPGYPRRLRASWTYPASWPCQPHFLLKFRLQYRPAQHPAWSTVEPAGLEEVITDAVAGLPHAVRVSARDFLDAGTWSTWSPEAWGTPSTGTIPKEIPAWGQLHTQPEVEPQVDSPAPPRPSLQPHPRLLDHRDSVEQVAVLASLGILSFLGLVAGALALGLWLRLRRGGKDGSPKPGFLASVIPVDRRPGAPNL
T3 sequence (looked up) 2: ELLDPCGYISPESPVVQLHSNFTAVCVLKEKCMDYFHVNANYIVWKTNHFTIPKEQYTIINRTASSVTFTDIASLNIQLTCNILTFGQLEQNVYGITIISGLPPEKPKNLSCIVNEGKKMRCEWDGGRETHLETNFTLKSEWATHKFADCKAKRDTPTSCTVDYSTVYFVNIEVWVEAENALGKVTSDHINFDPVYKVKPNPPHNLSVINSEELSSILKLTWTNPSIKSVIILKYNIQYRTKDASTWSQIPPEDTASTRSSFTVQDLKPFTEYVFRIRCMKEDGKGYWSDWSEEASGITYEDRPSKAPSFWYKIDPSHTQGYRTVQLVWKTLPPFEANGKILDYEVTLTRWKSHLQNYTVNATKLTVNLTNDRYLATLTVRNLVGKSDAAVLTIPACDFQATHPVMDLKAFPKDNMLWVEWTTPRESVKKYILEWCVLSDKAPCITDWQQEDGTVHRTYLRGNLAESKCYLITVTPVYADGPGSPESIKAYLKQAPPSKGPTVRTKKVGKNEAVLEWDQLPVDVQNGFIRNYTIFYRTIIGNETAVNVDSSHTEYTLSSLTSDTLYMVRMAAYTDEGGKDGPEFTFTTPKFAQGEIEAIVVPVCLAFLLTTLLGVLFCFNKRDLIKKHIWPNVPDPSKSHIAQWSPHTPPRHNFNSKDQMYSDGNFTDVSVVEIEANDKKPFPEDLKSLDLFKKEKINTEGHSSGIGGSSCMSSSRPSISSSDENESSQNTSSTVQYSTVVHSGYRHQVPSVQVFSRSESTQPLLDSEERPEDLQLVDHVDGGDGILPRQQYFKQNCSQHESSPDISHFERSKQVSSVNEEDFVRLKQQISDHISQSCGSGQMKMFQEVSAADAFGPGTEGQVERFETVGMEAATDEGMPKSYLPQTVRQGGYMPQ

[4] = target: T3, human IL-11 receptor (human IL-11Rα and …); assay: Scatchard analysis, 32P-labelled ligand on B13Rα1 cells; unlabelled competitor FPΔIL-11
[5] = target: T4, murine IL-11Rα on 7TD1 cells (Class 1, low affinity sites; isolated IL-11Rα chains) (mouse, UniProt Q64385 24-432); assay: Scatchard analysis, 32P-labelled ligand on 7TD1 cells, Class 1 sites; unlabelled competitor FPΔIL-11
T4 construct: whole, on cells; also called 7TD1 Class 1 sites
T4 sequence (looked up): T1 sequence (looked up) 1
Protocol: (§3) Binding of ³²P-H/V-D/A on 7TD1 cells was carried out as described for the parental ³²P-FPΔIL-11 on B13Rα1 cells by Wang et al [Wang et al. (2002), cited supra, and incorporated by reference]. 7TD1 cells ([…]) were pre-incubated in culture medium lacking growth factor for 2 h and were washed 3 times with phosphate-buffered saline, pH 7.4 (PBS). For binding studies, radiolabelled H/V-D/A was added to cells at the indicated concentration in PBS containing 0.5% bovine serum albumin. The mixture was incubated at 4° C. for the appropriate time and bound radiolabelled H/V-D/A was separated from the free radioactivity by centrifugation at 3000 g for 1 min through a 0.2 ml layer of a mixture of 40% dioctyl phthalate and 60% dibutyl phthalate (Janssen Chimica, Beerse, Belgium). After quick freezing, the tip of each tube containing the cell pellet was cut-off and radioactivity was counted in a Beckman β-counter. Non-specific binding was determined by incubating cells with radiolabelled H/V-D/A in the presence of a 200-fold molar excess of unlabelled H/V-D/A. […]

[6] = target: T1, murine high affinity IL-11 receptor …; assay: Scatchard analysis, 32P-labelled ligand on 7TD1 cells, Class 2 sites; unlabelled competitor FPΔIL-11
Protocol: as §3

[7] = target: T2, fusion protein of human IL-11R and IL-2 …; assay: SPR, immobilized human IL-11Rα-IL-2
Protocol: as §1, §2

[8] = target: T4, murine IL-11Rα on 7TD1 cells (Class 1, …); assay: Scatchard analysis, 32P-labelled ligand on 7TD1 cells, low affinity sites
Protocol: as §3

[9] = target: T4, murine IL-11Rα on 7TD1 cells (Class 1, …); assay: Scatchard analysis, 32P-labelled ligand on 7TD1 cells, Class 1 sites; unlabelled competitor H/V-D/A
Protocol: as §3

[10] = target: T1, murine high affinity IL-11 receptor …; assay: Scatchard analysis, 32P-labelled ligand on 7TD1 cells, Class 2 sites; unlabelled competitor H/V-D/A
Protocol: as §3

| Binder | concentration required to induce half-maximal proliferation (EC50) of 7TD1 cells [1] | Kd [2] | koff [2] | kon [2] | Kd [3] | Kd [4] | Kd [5] | Kd [6] | fold lower EC50 of 7TD1 proliferation than wild-type IL-11 [1] | fold higher koff than parental FPΔIL-11 [7] | fold higher kon than parental FPΔIL-11 [7] | fold lower Kd than FPΔIL-11 [7] | fold higher affinity than FPΔIL-11 [8] | Kd [9] | Kd [10] |
| --- | --- | --- | --- | --- | --- | --- | --- | --- | --- | --- | --- | --- | --- | --- | --- |
| B1 | 15 ng/mL | 165 nM | 0.000975 s⁻¹ | 5900 M⁻¹ s⁻¹ | 0.4 nM | 0.44 nM | 7.2 nM | 0.65 nM |  |  |  |  |  |  |  |
| B2 | 0.03 ng/mL |  |  |  | 0.71 nM | 0.72 nM |  |  | 400 fold | 14 fold | 35 fold | 3 fold | ~3 fold | 2.7 nM | 0.6 nM |
| B3 | 15 ng/mL |  |  |  |  |  |  |  |  |  |  |  |  |  |  |
